Experimental data: US20150247135A1 (LIGACEPT, published 2015)

Assays:
[1] = biological target: T1, E4-Fc (amino acids 1-497 of ErbB4 joined to the IgG2Fc portion) (UniProt Q15303 26-522; P01859 104-326 = IgG part); experiment: trap coated on 96 well plate, varying HRG1β, detection antibody; Std Error Kd 2.92 nM
T1 construct: range 1-497;domain: IgG2Fc; Control trap; The 1-497 range counts on mature ErbB4 without the signal peptide; also called ErbB4-IgGFc
Experimental: (§1) Purified trap molecules were coated on 96 well plates and incubated with either TGFα or HRG1β. Then detection antibodies against TGFα or HRG1β were used to measure the affinity (Kd) and amount of bound ligand (Bmax).
(§2) Traps were coated on 96 well plates and incubated with varying concentrations of either TGFα or HRG1β. Detection antibodies against TGFα or HRG1β were used to measure the affinity (Kd) and amount of bound ligand (Bmax).

[2] = biological target: T1, E4-Fc (amino acids 1-497 of ErbB4 …); experiment: trap coated on 96 well plate, varying HRG1β, detection antibody; Std Error Kd 3.128 nM
Experimental: as §1, §2

T1 sequence (Q15303 other isoform, or with tags, fused parts or gaps limits assumed): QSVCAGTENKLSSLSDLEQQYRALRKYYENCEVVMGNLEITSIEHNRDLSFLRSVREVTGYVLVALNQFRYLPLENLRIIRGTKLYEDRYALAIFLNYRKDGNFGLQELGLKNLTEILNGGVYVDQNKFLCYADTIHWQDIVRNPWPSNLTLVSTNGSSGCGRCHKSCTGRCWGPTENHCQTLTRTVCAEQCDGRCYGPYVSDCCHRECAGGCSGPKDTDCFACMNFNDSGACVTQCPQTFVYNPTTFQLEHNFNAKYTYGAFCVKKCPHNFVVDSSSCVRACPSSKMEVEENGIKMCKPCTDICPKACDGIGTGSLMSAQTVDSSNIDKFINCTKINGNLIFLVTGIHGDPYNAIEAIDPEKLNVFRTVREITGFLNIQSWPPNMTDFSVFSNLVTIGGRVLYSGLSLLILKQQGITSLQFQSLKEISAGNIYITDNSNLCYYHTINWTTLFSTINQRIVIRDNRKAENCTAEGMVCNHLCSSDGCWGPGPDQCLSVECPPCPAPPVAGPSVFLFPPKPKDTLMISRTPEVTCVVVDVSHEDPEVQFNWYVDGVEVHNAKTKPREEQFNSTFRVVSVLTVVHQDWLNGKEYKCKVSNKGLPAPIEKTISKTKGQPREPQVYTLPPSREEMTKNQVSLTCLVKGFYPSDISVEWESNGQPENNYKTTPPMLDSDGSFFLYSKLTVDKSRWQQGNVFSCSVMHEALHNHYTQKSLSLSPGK

- Kd [1]: 21.2 nM
- Kd [2]: 14.5 nM
B1: HRG1β (ligand, UniProt Q02297-6 177-241, looked up)
chain: SHLVKCAEKEKTFCVNGGECFMVKDLSNPSRYLCKCPNEFTGDRCQNYVMASFYKHLGIEFMEAE
notes: Soluble ligand incubated with the coated traps; also called heregulin
